Values of other authors, collected in patent US20260085103A1, “LONG-ACTING INSULIN COMPOUND” (CHENGDU AODA BIOTECHNOLOGY CO., LTD, priority 2022, published 2026).

Assays:
[1] = background statement, subcutaneous injection
[2] = after addition of two arginines at the end of the B chain (changed from 5.4)

| Substance | duration of action [1] | half-life [1] [h] | isoelectric point [2] |
| --- | --- | --- | --- |
| insulin degludec | up to 42 hours | 24 |  |
| insulin glargine | 20 to 24 h | 12 | 6.7 |
